Experimental data as given in paper PMC11798926.

B1: myc-tagged SynDIG4 (wild type) [rat] / HA-tagged μ2 AP subunit [not stated] (parent)
chain 1: MSSEKSGLPDSVPHTSPPPYNAPQPPAEPPIPPPQTAPSSHHHHHHHYHQSGTATLPRLGAGGLASAAAGAQRGPSSSATLPRPPHHAPPGPAAGAPPPGCATLPRMPPDPYLQETRFEGPLPPPPPAAAAPPPPAPAPTAQAPGFVVPTHAGAVGTLPLGGYVAPGYPLQLQPCTAYVPVYPVGTPYASGTPGGPGVTSTLPPPPQGPGLALLEPRRPPHDYMPIAVLTTICCFWPTGIIAIFKAVQVRTALARGDLVSAEIASREARNFSFISLAVGIAAMVLCTILTVVIIIAAQHHENYWDP
chain 2: MIGGLFIYNHKGEVLISRVYRDDIGRNAVDAFRVNVIHARQQVRSPVTNIARTSFFHVKRSNIWLAAVTKQNVNAAMVFEFLYKMCDVMAAYFGKISEENIKNNFVLIYELLDEILDFGYPQNSETGALKTFITQQGIKSQHQTKEEQSQITSQVTGQIGWRREGIKYRRNELFLDVLESVNLLMSPQGQVLSAHVSGRVVMKSYLSGMPECKFGMNDKIVIEKQGKGTADETSKSGKQSIAIDDCTFHQCVRLSKFDSERSISFIPPDGEFELMRYRTTKDIILPFRVIPLVREVGRTKLEVKVVIKSNFKPSLLAQKIEVRIPTPLNTSGVQVICMKGKAKYKASENAIVWKIKRMAGMKESQISAEIELLPTNDKKKWARPPISMNFEVPFAPSGLKVRYLKVFEPKLNYSDHDVIKWVRYIGRSGIYETRC

Variants of: B1
Test: co-immunoprecipitation (IP: HA, blot: myc), quantified
Conditions: with HA-tagged μ2 AP subunit; HEK293T cells; first bar chart of panel D (SD4 vs AVPA); parent: 100; read off a plot

Question: For chain 1 Y178A V181A, which percent of parent is on record?
Answer: The percent of parent was 45 %SD4.

Same assay, conditions: with HA-tagged μ2 AP subunit; HEK293T cells; third bar chart of panel D (SD4 vs AVPA vs ∆170-89); marked ns; parent: 100; read off a plot

Question: With chain 1 Y178A V181A as the variant, how does the percent of parent read?
Answer: The percent of parent was 55 %SD4.
